A short description of the series: soluble fraction after stress (log2 fold change); higher = more stays soluble; pooled small domains, quantitative proteomics. The conditions noted are these: stress: 75 degC.
“HMQEAGKWLKKLRTERKITLEQLSKKTGLSVGFLSQFERGLTSIAIDTLEKIAAVFNVTIDYFISP”: the “soluble fraction (log2)” value is 0.0548.
Take “HMQEEFVAPDVKDGAIVLHKAFGEGTVTKIDKAQKHIRVTFGVGEKTFIFPDAFKQGFLRMKG”: the “soluble fraction (log2)” value was found to be 0.303.
For “HMQEERLTFDTLLGISGIGPRLALAVLSRFTPGSLAAAVDAGDTKAFSAVPGVGNRTASRIILELKGKL” the value was -0.748.
For “HMQEGPGLVPDFRGQTMREVLRGGQSLGVRVAVDGTGLAVAQTPEPGSPLNKVSQVTVSFRPP” the value was 0.0233; for “HMQEINLIGVTGNDLERSALVKLLDGEIIKLSVGDNLNGGRVVDISAVTLTYLKSGQSITLKLPK”, -2.9.
For “HMQELGVISEGKYNIELNMVSWNDREPKYDIRSWAPDHSRMGKGISLTEEEMERLVELWNTRNE” the value was -0.441; for “HMQELKWERNYKLVQDYIKQYGVLPSKNTKYANVSIGRWLTNQHELVKEDNLAPERFEKIKELDT”, -0.297.
Regarding “HMQENDLGAVEKIVDDVLHDPKNAQAVADFKAGSEKVLGFLTGQVMKASRGKANPSVVQEVLRQKLKN”, the “soluble fraction (log2)” value was -0.314.
With “HMQENVIIYPNPTKSVIYLSEKVEFILYNILGEIIFIGDNNKIDLNSFDNGVYIFESGNVRTQIIK” the figure was 0.0395; with “HMQEQIVQGIVKYFDAEKQFGFIAGDDGVDRFFNAKSIQGNAVKTGDRVRFLAISHIRGPRALKISA”, -1.24.
For “HMQEQSSYVGQFGTAATTLRPSGTVELEDGTRIDVVTVGEFIEKGEPVQVVRKDGTWLVVEKRRSK”, the “soluble fraction (log2)” value is 0.976.
With “HMQERKYTVSFNTNGGSTINDQKITSGNVIISPGAPKRSGYTFVGWYYHGQPFDLNTKINQDYVLVAKWIK”, the “soluble fraction (log2)” value was -2.49.
Turning to “HMQETILFGQQKAINNLSSDTGLSENDLDSYLKKRYKKPLYQLTQSEGADIINGFQDGSLSKNSILDYIKP”, the “soluble fraction (log2)” value worked out at 0.173.
For “HMQEVKVRLKPDYLGEVLIKVISDKGELKAELFVSNSQVRSLLRAYAVEFQNQIRDQGYNFSEINVYR” the value was -0.738.
For “HMQFAEIPNFSEMALQILRLQADGLSITKIAEALHMNPRTVKYHAQENYRKLQASNKSEALLAARNLNL” the value was -1.85.
For “HMQFEIGDTVRVHVNIREGERERVQMFEGTVIAKRGSGVSETFTVRRVSYGVGVERVFPVNSPNV” the value was 0.437; for “HMQFETVQDAFNHYRNASLEEIESRAAEIKGIIESDPEADVRALNIEIEGLHQAKQNILEKQKTK”, -0.179; for “HMQFLGKVTVTHARQANLRAQPSMDAAIVGKVNPGEVYNVVSIPKTSWYEIQLQNGKTVFIAAGMVSFRM”, -0.441.
As to “HMQFSAVVLDMETRRQVAGVAVYINPKGVVKTDMRGRFVIDGAFNSVTLVRQGYESLTLERSEMTDSIWM”, the “soluble fraction (log2)” value is -1.64.
With “HMQGEASDAQLKAIFAIARKLGITDDFEVHRKASRLAGVPEPEVLPSLKSLTYAQASAVIKALQEELE” the figure was 0.248; with “HMQGENDVTIDPKKLTIGDLAKEISKIEDSEELNNILVAEKEGKGRKGAINAITERIENVSGGTG”, 0.0455.
On to “HMQGLIGEQKAIQIALSRVPGAKPEHVRELKLDYDDGMQLYEGEIFYNFREYEFEINAVTGEVVGWEI”, for which the “soluble fraction (log2)” value was -1.01.
For the sequence “HMQHRSRALHLQEELVRRYYDQAIAPFMIFWEMKANVTLDQLKELRAVVSPSLNEHPYTKQLDEYIRLAE”, the “soluble fraction (log2)” value is -0.595.
On to “HMQIEQVDYGTFMTMIDDKKIDKVEIKDNQILFIGKDDNKKYKTGIVQDPQLAERLHASGAVFSQDI”, for which the “soluble fraction (log2)” value was found to be 0.261.
For “HMQIIGEQNQKDFIALFGAILRMRNLLLSFDEFKGNELISERDLQDYLGRYQDLRDEWRNKRRER” the value was -0.0814; for “HMQINDSSVVQKAVNDVIDQNSKAVSDYWDGKEGAAKFLMGQVMKLTRGQANPDLANQLILTRLQQERV”, 0.437; for “HMQISDEAALLAIVDRVIADNQGPLANYLGGKQSLLGWFVGQVMRATRGQAIPAVVNRLVGERLAAQREE”, -0.877.
For the sequence “HMQISDESQLREVVSKILEENEQSVIDYKNGKTRAMGFIIGQVMKATRGKANPQLVNEIVKEMLDE”, the “soluble fraction (log2)” value is 0.0956.
For “HMQISDTASIQEIAKEIIKSNPKAVEDYKKGKENALQFLVGQLMTKTKGTVHPGAARTILGDILK” the value was -0.0025.
For “HMQISDTSELEAVVQDILKANMDVVAKIKAGKTNSANFLMGQVMKLTKGRAKPDTVLQLILDAVKQ”, the “soluble fraction (log2)” value is -0.943.
With “HMQISLAAARVNAGLTQEEVAKAMKVGKQTIVSWEKGNSEPKMSQSRELSELYKIPLDYIFYP” the figure was -0.5; with “HMQITDSGAIETIIDKIIADNPGQVTQYLSGKDKVFGFFVGQTMKASQGKANPAEVNKILQEKLK”, -0.0499.
For “HMQITQSSEPIDVSALRLGMFIHLEGGWLSHPFPRSSFKITSEDQLVTLRSLGISVLRWSPELSDPE” the value was -3.52.
“HMQIVPVDYSTFMQSIDDKTVDHVEIQSNQILYTVKDDHKKYKTGIMNDPTLAQRLMESGATFTQD”: the “soluble fraction (log2)” value worked out at 0.12.
With “HMQKAEQIGSLLREKRKSMGLTQDELAQQVEVRRQTLADLELGKNVGSHLLIKVMEHLGVGFDLL” the figure was -0.738.
For “HMQKEIKVPDVANMALSEAVEKLQNEGFKVADEQKEVSSDEIEEGKVVKTSPVAGTKKTKGSEITIYISSG” the value was 0.26; for “HMQKFLEATGENRDAAVENALEQLGLERDDVSVEVLEIGKKGFLGIGATPARVRVTYEAPDI”, 0.197; for “HMQKKEVTVPEVRSKSLKEAAQILSEQNLKYETEPVNVENPDMVVIDQFPKPGGKISEQSVIILYLR”, 0.697.
For “HMQKLNIEEQIVYDIIFKNKELSANEIQIKSGIKTSILNALLINLEIKQYIKLKFGNFYEIK” the value was 0.181.
For “HMQKMPEMQILPNGKVKLPDFSGINMRKAAELLQYGKLRLQPYGSGTAYQQKPAAGTEVDEGTVVEIWF”, the “soluble fraction (log2)” value is -0.83.
As for “HMQKNFYQILGVDSKASPATINAAYERAKSRVIQSGLEDPDTMALLRDAWETLADPGDRAAYDESLAT”, the “soluble fraction (log2)” value is 0.0744.
With “HMQKPELLAPAGSLEKAKTAFKYGADAVYMGTSNLSLRSRVTVDDDELIKTIEYAHSINKKVYAALNIYAR”, the “soluble fraction (log2)” value turned out to be 0.249.
With “HMQKPWFYESSGQRKGGFSEQEMVGLITDGEITHGAIVWRNGLSDWTKLEQTELAAHLDKTA” the figure was -0.11; with “HMQKRDQKKRANMLDSLKVGTRIVTIGGIFGEIAKIKDDRIRIKVAEDVEIWIRRAAVGTVIT”, -1.94; with “HMQKTPFEIMTIYKDQILEMLGKDLTATEISIVLKKKGEKVHPREIRKFQLQHYEEVQDMRKKWRE”, -1.17.
With “HMQKWILVNKQGRLSGILDHRAFNTRESATAWFQRTSDISGGTIKIDDYYYVLKNEEYKLLKE” the figure was -3.09; with “HMQKYEDIINVTRERLQNKFYSQTVIPTDDDIYIWLDKVAILEEIKLSKEDRQMLFNLLKKEAT”, -1.35.
For “HMQLGQMIVKLRKEQGLTQETFAKKFNVTRQTVSNWENEKSYPDLHTLVKISDEFHLSLDILLK”, the “soluble fraction (log2)” value is -3.14.
For “HMQLGSILAYKFPQFGGIDGAWQVRDDSNGTGPYIAFWDAKTIGRGMPTEDELTAWAQEYEA” the value was -0.206; for “HMQLPTPEDLKKRRNELGLTQSDLAKRAGVSQPLIARIESGDVDPRLSTVRKILDAFEEVEKEQQ”, 0.0518.
With “HMQLSASQQQILNHAAVNTDGKLVWFPETLKGGARKKVLDSLFSRALITTDGTHWFVAAEGYEALGIP” the figure was -1.06.
For “HMQLTDLSALEAIIKEVLAANPKSVEDYKSGKEKAFGSLVGQAMKATKGKANPETVNSLLRKNLN”, the “soluble fraction (log2)” value was found to be 0.729.
For “HMQLTDSDFTRLYTYVKNSYGIDLSKKKQLISSRLTNMLIQQGYRDFTQYTDEIISGKNPEMVSAMLNRLT”, the “soluble fraction (log2)” value is -1.33.
With “HMQLTPAQHAILAKAIHSSDGKIEWFPDNVKGGARKKVLEGMFNRALITPDGEGWRIAAEGYDALGMPRP” the figure was -0.097; with “HMQLVGSSAAVLIPAPAGGLGKIRLEFRGQTIDLIAKATDGGALIEGGAVTIVDVRDGQADVSV”, -0.939; with “HMQMMDATLKIPPSMGKLRGTLYELNSVTSEDVDENGQLALHVRLSSVDWQRLKKRFDSNLDELIVQKN”, -0.219.
For “HMQMPLTMATMGEVNKIVKVGGNEETRRFLANLGFVAGAEVVVLSKIGGNVIVNVKDSRVAVNEDMARHIM”, the “soluble fraction (log2)” value was -1.19.
With “HMQMSDTAAIGKIVDEVFAENPAALEDYAKGKTNVVDWLTGQVMKKSRGQANPGIASELVQKRLADF” the figure was 0.0922; with “HMQMSDTGAIEAMVKEALDENPQAIEDFKNGKGKALGFLMGQVMKKSKGQANGGIVNKLIKEELQKRIG”, 0.292.
With “HMQMTKSEFLDALRRALNGNMAAASVDDNIRFYDSYFYTEETKGRSEAEILSELGDPRILARTLIDAAD” the figure was -0.0328; with “HMQNEIQQLAIDLIARAHKSGASDIHIVDTGTYTRIKFRVLGLLREDSQMEAETGRQMISTIYGILG”, -0.0698.
With “HMQNEKLSYFVTETIVTERADLFITKKFPQFSRSQIQKLINSGNITINSNPIKASTEIINKDNIEITIPV” the figure was -2.15.
“HMQNESGLFTMSDLWEAGLMGSENASRKRAAVGAFLGIGFGNGKQFLKRLNHFGVTKEEWESALEQLGE”: the “soluble fraction (log2)” value was -1.18.
For “HMQNEVMPYSTFLSEVNSGNVTKVKIDHEQLTGTLKSGKQFTTYILDAATLPSIVAEKGVEVEVVPP” the value was 0.506.
With “HMQNGNYVVQRQDSLWSIAARISGQTHQPIGEVMNHIKALNEHAFVGGNVNRLRTGTNLNLG” the figure was -0.224; with “HMQNKRQEQLLALLAERRDYMTSRQLAEILQVSDRTIRSDVEAINRRSSPPPIESNVRQGYRLNPEA”, -0.142.
For “HMQNNIEFTVLEEDAQKRLDVLLSEKTALSRSASASLIEEGGVLVNGRKEPKKYKPVRGEIITAILPE” the value was 0.504; for “HMQNNTIAFSKFLQEVDNGRVVQVEIQGNNINGILSDGSKFNTYSPNYPALVEKLSEKNVNIVASPV”, 0.0941.
In the case of “HMQNPDHLLALAAAAQAAIELGRPDEAEAYYRHLVEVYGVEMASQKPEYLDHSGITNDLRNVAEGFLVG”, the “soluble fraction (log2)” value was -1.06.
For “HMQNRIVNTTQGLAADKRGLLVADETGHTTRPGIFASGDVVNGARTVVEAVAHSKIVAESMHQYMQ” the value was 0.654.

Source of the values: the domain aggregation screens of Martell et al. (2025).
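Further: 20 min heating vs room temperature control held 20 min.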
